Data published in PMC9006650, “Phosphorylation and acetylation of mitochondrial transcription factor A promote transcription processivity without compromising initiation or DNA compaction”.

Target: T1, TFAM (unmodified) (Homo sapiens, UniProt Q00059 43-246)
T1 sequence: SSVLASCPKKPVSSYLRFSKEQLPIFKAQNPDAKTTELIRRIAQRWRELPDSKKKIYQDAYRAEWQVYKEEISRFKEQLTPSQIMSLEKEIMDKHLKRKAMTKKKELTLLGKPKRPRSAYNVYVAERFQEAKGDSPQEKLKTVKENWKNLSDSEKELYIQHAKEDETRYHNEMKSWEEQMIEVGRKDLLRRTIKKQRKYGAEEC
Experiment: EMSA; 40 nM DNA; 50, 25, 12 bp per TFAM; no gel shift (legend: very low affinity); pUC19: 50 mM Tris-acetate pH 8.0, 100 mM K acetate, 5 mM Mg acetate, 1 mM DTT, 37 C 30 min, 1% agarose at 4 C; poly-T: 25 mM Tris-HCl pH 8.0, 70 mM NaCl, 10 mM
Conditions: protein: recombinant; tags: N-terminal His6 removed with TEV protease; label: 5'-32P; single strand

TTTTTTTTTTTTTTTTTTTTTTTTTTTTTT (ssDNA) [poly-T ssDNA 30-mer]: no binding.
